B1: RBD-1C (biotinylated) (ssDNA)
DNA: CAGCACCGACCTTGTGCTTTGGGAGTGCTGGTCCAAGGGCGTTAATGGACA
B2: Found-SH (ssDNA)
DNA: CACCGCTTTTGCCTTTTGGGGACGGATATAGGGAAACACGATAGAATCCGAACAGCACC
B3: RBD-1C-Cy3 (ssDNA)
DNA: B1 DNA

Assays:
[1] = target: T1, RBD on Ag nanoparticles (RBD NP) (SARS-CoV-2 (Wuhan strain), UniProt P0DTC2 319-541); assay: BLI; BLI ([…]; BLI ([…], room temperature; […]
[2] = target: T1, RBD on Ag nanoparticles (RBD NP); assay: SERS sandwich; BLI ([…]; BLI ([…], room temperature; […]

Binder	binding result [1]	binding result [2]
B1	binds	
B2		binds
B3		binds

— article PMC9497064, “Model of the SARS-CoV-2 Virus for Development of a DNA-Modified, Surface-Enhanced Raman Spectroscopy Sensor with a Novel Hybrid Plasmonic Platform in Sandwich Mode”
